This data set has as its system T1, Cy5-Ala-Ala-Phe-Phe-Ala-Ala-Lys-Compound III.
T1 sequence: AAFFAAK

As for pepsin, the “Cy5 fluorescence intensity over time (FRET quench release on cleavage), with and without pepsin” value was “Protease-catalysed hydrolysis of the substrate removes this quenching, restoring the Cy5 fluorescence”.

For the origin of these results see US6828116.
